Assay [1] deals with HA-CXCR4(D20R)-Rluc3 (UniProt P61073).
Assay [2] deals with CXCR4(D187C)-T4L (UniProt P61073). The assay can be described thus: cross-linking + pull-down; disulfide cross-linking: Cys mutants co-expressed in Sf9 cells; membranes solubilised in DDM/CHS; TALON metal affinity pull-down by the receptor His tag; non-reducing SDS-PAGE and Western blot (anti-Flag, anti-HA); IR800 signal relative to CXCR4(D187C)-vMIP-II(W5C) set to 100%.

These results are taken from article PMC7173943.

In the case of “CXCL12(R47E) (from UniProt P48061-2 22-89) (ligand)”, the β-arrestin-2 recruitment to HA-CXCR4-Rluc3 (BRET2, HEK293T cells), pEC50 in assay [1] was 5.89 -log10(EC50). For the substance vMIP-II(W5C) (ligand), in assay [2], the fraction of extracted receptor cross-linked stood at 100%.
